Entries after “also recorded” stand apart in the source; their conditions may differ. Read-outs that look alike come from different tables or passages of the source. Where no end group is shown, it is not given here.
T1: P/CAF bromodomain (Homo sapiens, UniProt Q92831, P804A/P805A)
T1 construct: poly-His (N, cleaved yes); made in house; host or cells: Escherichia coli BL21(DE3)
T1 sequence (Q92831 719-832 P804A/P805A): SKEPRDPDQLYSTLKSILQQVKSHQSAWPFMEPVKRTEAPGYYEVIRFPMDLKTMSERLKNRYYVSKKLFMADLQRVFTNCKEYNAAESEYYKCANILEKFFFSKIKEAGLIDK

B1: Tyr809Ala: P/CAF bromodomain point mutant, Tyr809 to Ala (protein)
chain: SKEPRDPDQLYSTLKSILQQVKSHQSAWPFMEPVKRTEAPGYYEVIRFPMDLKTMSERLKNRYYVSKKLFMADLQRVFTNCKEYNAAESEAYKCANILEKFFFSKIKEAGLIDK
B2: Wild-Type: wild-type bromodomain of P/CAF (residues 719-832 of SEQ ID NO:2) (protein, listed as Homo sapiens)
chain: SKEPRDPDQLYSTLKSILQQVKSHQSAWPFMEPVKRTEAPGYYEVIRFPMDLKTMSERLKNRYYVSKKLFMADLQRVFTNCKEYNAAESEYYKCANILEKFFFSKIKEAGLIDK
B3: Tyr760Ala: P/CAF bromodomain point mutant, Tyr760 to Ala (protein)
chain: SKEPRDPDQLYSTLKSILQQVKSHQSAWPFMEPVKRTEAPGAYEVIRFPMDLKTMSERLKNRYYVSKKLFMADLQRVFTNCKEYNAAESEYYKCANILEKFFFSKIKEAGLIDK
B4: Val752Ala (protein)
chain: SKEPRDPDQLYSTLKSILQQVKSHQSAWPFMEPAKRTEAPGYYEVIRFPMDLKTMSERLKNRYYVSKKLFMADLQRVFTNCKEYNAAESEYYKCANILEKFFFSKIKEAGLIDK
B5: Tyr802Ala: P/CAF bromodomain point mutant, Tyr802 to Ala (protein)
chain: SKEPRDPDQLYSTLKSILQQVKSHQSAWPFMEPVKRTEAPGYYEVIRFPMDLKTMSERLKNRYYVSKKLFMADLQRVFTNCKEANAAESEYYKCANILEKFFFSKIKEAGLIDK

How the values were obtained:
P/CAF bromodomain = target: T1, P/CAF bromodomain; assay: NMR ligand titration (2D 15N-/13C-HSQC chemical shift changes) of the P/CAF bromodomain; type: binding; settings: for binding to the P/CAF bromodomain (qualitative): NMR titration, chemical shift changes
Experimental: (§1) NMR spectroscopy: All NMR spectra were acquired at 30° C. on a Bruker DRX600 or DRX500 spectrometer. The backbone assignments of the ^1H, ^13C, and ^15N resonances were achieved using deuterium-decoupled triple-resonance experiments of HNCACB and HN(CO)CACB [Yamazaki et al., J. Am. Chem. Soc. 116:11655-11666 (1994)] recorded using the uniformly ^15N/^13C-labeled and fractionally deuterated protein. The side-chain atoms were assigned from 3D HCCH-TOCSY [Clore and Gronenbom, Meth. Enzymol. 239:249-363 (1994)] and (H)C(CO)NH-TOCSY [Logan et al., J. Biolmol. NMR 3:225-231 (1993)] data collected on the uniformly ^15N/^13C-labeled protein. Stereospecific assignments of methyl groups of the Val and Leu residues were obtained using a fractionally ^13C-labeled sample [Neri et al., Biochemistry 28:7510-7516 (1989)]. The NOE-derived distance restraints were obtained from ^15N- or ^13C-edited 3D NOESY spectra. φ-angle restraints were determined based on the ^3JHn,Hα coupling constants measured in a 3D H spectrum [Clore and Gronenbom, Meth. Enzymol. 239:249-363 (1994)]. Slowly exchanging amide protons were identified from a series of 2D ^15N-HSQC spectra recorded after the H2O buffer was changed to a ^2H2O buffer. The intermolecular NOEs used in defining the structure of the bromodomain/Ac-histamine complex were detected in ^13C-edited (F1), ^13C/^15N-filtered (F3) 3D NOESY spectrum [Clore and Gronenbom, Meth. Enzymol. 239:249-363 (1994)]. All NMR spectra were processed with the NMRPipe/NMRDraw programs and analyzed using NMRView [Johnson and Blevins, J. Biomol., NMR 4:603-614 (1994)].
(§2) Ligand titration: Ligand titration experiments were performed by recording a series of 2D ^15N—- and ^13C-HSQC spectra on the uniformly ^15N-, and ^15N/^13C-labelled bromodomain (˜0.3 mM), respectively, in the presence of different amounts of ligand concentration ranging from 0 to approximately 2.0 mM. The protein sample and the stock solutions of the ligands were all prepared in the same aqueous buffer containing 100 mM phosphate and 5 mM perdeuterated DTT at pH 6.5.
as §1, with “the uniformly ^15N/^13C-labelled and fractionally” for “the uniformly ^15N/^13C-labeled and fractionally”, “of the valine and leucine” for “of the Val and Leu”, “valine and leucine residues were” for “Val and Leu residues were”, “3D NOESY spectra [Clore and Gronenbom, Meth. Enzymol. 239:249-363 (1994)]. φ-angle restraints” for “3D NOESY spectra. φ-angle restraints”, “on the ^3JHN,H coupling constants” for “on the ^3JHn,Hα coupling constants”, “a 3D HNHA spectrum [Clore” for “a 3D H spectrum [Clore”
Ligand titration experiments were performed by recording a series of 2D ^15N-HSQC spectra on the uniformly ^15N-labelled bromodomain (˜0.3 mM), respectively, in the presence of different amounts of ligand concentration ranging from 0 to ˜2.0 mM.

[1] = tested on: lysine-acetylated H4 peptide; assay: NMR titration of wild-type and mutant P/CAF bromodomain proteins with the H4 AcK peptide; type: binding; settings: for binding of bromodomain mutants to the lysine-acetylated H4 peptide (qualitative): NMR titration; for Kd: read-out: H4 AcK-Peptide Binding KD
Experimental: (§3) Site-directed mutagenesis: Mutant proteins were prepared using the QuickChange site-directed mutagenesis kit (Stratagene). The presence of appropriate mutations was confirmed by DNA sequencing.
as §2

[2] = Structural integrity of P/CAF bromodomain mutants by 15N-HSQC spectra; type: physicochemical; design: key: ++++: as stable as the wild-type; +++: mildly destabilized; ++: moderately destabilized; −: completely unfolded; settings: relative to wild-type
Experimental: as §3

[3] = tested on: biotinylated and lysine-acetylated Tat peptide; assay: Mutational analysis: binding of P/CAF bromodomain mutant proteins to immobilized lysine-acetylated Tat peptide; design: species or system HIV-1; settings: peptide immobilized onto streptavidin agarose
Experimental: Site directed mutagenesis. Site directed mutagenesis was performed on selected residues of P/CAF Bromodomain using quick-change kit (Stratagene). The mutants were confirmed by sequencing and proteins were expressed and purified as above.
Peptide binding assay. Equal amount (10 μM) of GST, GST-P/CAF bromodomain and its mutant proteins, as well as various GST-fusion bromodomains from CBP and TIF1β were incubated for at least two hours at room temperature with the N-terminal biotinylated and lysine-acetylated Tat peptide (50 μM) in a 50 mM Tris buffer of pH 7.5, containing 50 mM NaCl, 0.1% BSA and 1 mMDTT. Streptavidin agarose (10 μL) was added to mixture and the beads were washed twice in the Tris buffer with 500 mM NaCl and 0.1% NP-40. Proteins were eluted from the argarose beads in SDS buffer and separated on a 14% SDS-PAGE. The resolved proteins were transferred onto nitrocellulose membrane (Pharmacia), and the membrane was blocked overnight with 5% non-fat milk in washing buffer of 20 mM Tris, pH 7.5, plus 150 mM NaCl and 0.1% Tween-20 at 4° C. Western blotting was performed with anti-GST antibody (Sigma) and goat anti-rabbit IgG conjugated with horseradish-peroxidase (Promega) and developed by chemiluminescence. Peptide competition experiments were performed by incubating various non-biotinylated and mutant Tat peptide with the P/CAF bromodomain and the biotinylated and wild type Tat peptide. The molar ratio of the wild type and mutant Tat peptides in the mixture were kept at 1:2. The binding results were analyses by using the procedure as described above.
To identify the amino acid residues of the P/CAF bromodomain that are important for complex formation, mutant proteins were tested for binding to the biotinylated and lysine-acetylated Tat peptide that is immobilized onto streptavidin agarose (FIG. 10A). […] The results from the mutational analysis agree with the observations of intermolecular NOEs in the NMR spectra.

[4] = estimated from amide chemical shift changes in 15N-HSQC vs ligand concentration

Molecule | binding to the P/CAF bromodomain (qualitative) (P/CAF bromodomain) | binding of bromodomain mutants to the lysine-acetylated H4 peptide (qualitative) [1] | Structural Integrity [2] | Kd [1, 4] [µM] | also measured
CC(=O)NCCCC[C@H](NC(=O)CNC(=O)CNC(=O)[C@H](CCCCN)NC(=O)CNC(=O)[C@H](CCCNC(=N)N)NC(=O)CNC(=O)[C@@H](N)CO)C(=O)NCC(=O)N[C@@H](CC(C)C)C(=O)NCC(=O)N[C@@H](CCCCN)C(=O)O [SGRGKGG-AcK-GLGK] | – | – | – | – | Kd (P/CAF bromodomain; estimated from NMR titration, 15N-HSQC, pH 6.5, 30° C., read-out: dissociation constant (KD)): 346 ± 54 µM
CC(=O)NCCc1cnc[nH]1 [acetyl-histamine] | chemical shift perturbations with similar concentration dependence and does | – | – | – | –
CC(=O)N[C@@H](Cc1c[nH]cn1)C(=O)O [acetyl-histidine] | did not bind; also recorded: does not to bind | – | – | – | –
CC(=O)N[C@@H](CCCCN)C(=O)O [acetyl-lysine] | did not bind; also recorded: does not appear to bind | – | – | – | –
ARKSTGG-AcK-APRKQL (ARKSTGGXAPRKQL; acetyl-lysine; synthetic bromodomain peptide) | bind to the P/CAF bromodomain | – | – | – | –
ISYGR-AcK-KRRQRR | bind to the P/CAF bromodomain | – | – | – | –
QSTSRHK-AcK-LMFKTE (QSTSRHKXLMFKTE; acetyl-lysine; synthetic bromodomain peptide) | bind to the P/CAF bromodomain | – | – | – | –
SYGRK(Ac)KRRQRC [Tat AcK50 peptide, SYGR-AcK-KRRQRC] | – | – | – | – | Kd (P/CAF bromodomain): ~20 µM
B1 | – | completely abrogated | ++++ | – | H4 AcK-Peptide Binding KD (μM) [1, 4]: No Binding ^c; binding of alanine point mutants to the Tat AcK50 peptide (qualitative) [3]: nearly complete loss or significantly reduced binding
B2 | – | – | ++++ | 346 ± 54 | –
B3 | – | significantly reduced ligand binding affinity | +++ | > 10000 | –
B4 | – | significantly reduced ligand binding affinity | ++ | > 10000 | binding of alanine point mutants to the Tat AcK50 peptide (qualitative) [3]: nearly complete loss or significantly reduced binding
B5 | – | significantly reduced ligand binding affinity | +++ | > 10000 | binding of alanine point mutants to the Tat AcK50 peptide (qualitative) [3]: nearly complete loss or significantly reduced binding

From patent publication US7589167B2, “ZA loops of bromodomains” (J. David Gladstone Institutes, priority 2000, dated 2009)
